# Results published in the RNAGym collection of RNA variant scans (doi:10.1073/pnas.2313332121).
# B1: TPR t1 (parent)
# chain: GACCAAUCUGCCCUCAGAGCUCGAGAACAUCUUCGGAUGCAGAGGAGGCAGGCUUCGGUGGCGCGAUAGCGCCAACGUCCUCAACCUCCAAUGCAUCCCACCACAUGAUGAUGCCUGAAGAGCCUUGGUUUUUUG
# Variants of: B1
# Test: polymerase ribozyme fitness, log enrichment relative to wild type (log ratio); higher = more active; in vitro selection for triplet polymerase activity
# How it was run: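 Each subunit of a heterodimeric triplet polymerase ribozyme was represented by a PCR-built, transcribed mutant library that underwent triplicate single-round in vitro selection with frozen incubation at −7 °C. Extended constructs were recovered by gel excision, streptavidin-bead capture and RT-PCR, and Illumina sequencing of input and output libraries kept genotypes with ≥10 input reads and ≥1 read per output. Fitness is the logarithm of genotype enrichment relative to wild-type enrichment, from inverse-variance-weighted replicate averages, with a logarithm base of 2.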
row,Variant,polymerase ribozyme fitness (log ratio)
1,G93A C98A,-5.11
2,G93C C102U,-3.11
3,A91C C123A,-1.1
4,A95U U106C,-1.56
5,G93U U96G U106A G127C,-3.43
6,C89G A105G,-3.85
7,U92A G113U,-3.75
8,C94A C123G,-0.728
9,G93U G117C,-4.08
10,U92A U133A,-2.62
11,U96A A105U,-4.09
12,U92A C115G C123G,-5.89
13,A90U G117C A118C,-3.48
14,C89G C124U,0.383
15,A90U A95U G113C G122U,-1.98
16,C89A C104A,-4.02
17,U96G C124A,1.39
18,C94A C97U G120U,-1.04
19,C89G C97G,-6.08
20,C89U G120U U125A,-0.262
21,A91G C115G,-4.4

row,Variant,polymerase ribozyme fitness (log ratio)
1,A90C C124U,0.931
2,A95G A121U,2.11
3,C89U G135U,-0.983
4,U92G G93C G117C A121U,-5.65
5,C89U G110U,-2.22
6,C89U G110C,-3.36
7,U96C U133A,-0.456
8,C89A U96A C115A,-2.16
9,C89A C114A,-2.6
10,G93U A111G G122A,-1.2
11,A91U A121U,0.873
12,U96C G110A,-0.613
13,U96C G110U,-0.753
14,U96A C102A,-3.43
15,U92G U125A,-2.96
16,A90C A118C,-2.82
17,A90C A118U,-0.0445
18,C89G G113C,-3.04
19,C94U C115U A121G,-2.09
20,G93C A111U,-5.12
21,C89A G110C,-5.43

row,Variant,polymerase ribozyme fitness (log ratio)
1,A91U G117A G120C G135C,-3.63
2,C89A U129C,-2.03
3,C94U C98U G120U G127U,-0.759
4,C89A,-1.27
5,C89G,-1.19
6,C89U,-0.195
7,G93U G113C U125A,-3.4
8,C94G C102U,-3.04
9,U96G U109C,-4.85
10,U96G C102G G113U,-5.71
11,G93A C101U A118G,-0.63
12,A95U C102U U125G,-4.42
13,C88U U92A,-2.45
14,C89A U112A A121U U131C,0.436
15,U96A G110A,-2.45
16,A90C G128C,-3.68
17,C89A C123U U129A,-1.73
18,A90C U106C U116G A119G U125G,-1.75
19,G93A C97U G127C,-2.77
20,C94U G128C,-4.18
21,C94U A111G,0.127

row,Variant,polymerase ribozyme fitness (log ratio)
1,A90C C102U A111G,-4.24
2,A95C G113U G120C U125A,-3.79
3,G93A C115A U131A,-0.388
4,C94G A118U,-0.748
5,A95U U129C,-0.935
6,G93C U130C,-0.714
7,A91U C104U,-1.47
8,A91U C104A,-4.59
9,U92C C102U,-4.04
10,C89A G113U,-3.35
11,C97A G120A,-3.9
12,C94G G120A,0.357
13,C94G U131A,-1.9
14,U96G U125A,-0.674
15,C89U G107A,-5.32
16,A91U C115U U130A,-2.33
17,A90U G110A,-4.07
18,U92G G120A A121C,-2.53
19,G93A G110A,-1.24
20,G93A G110C,-5.32
